The text below walks through data of paper PMC5137450.

Common to all, as to assay: filter binding
Data set [1] concerns the target T1, MBNL3 (human, UniProt Q9NUK0 1-257).
T1 sequence: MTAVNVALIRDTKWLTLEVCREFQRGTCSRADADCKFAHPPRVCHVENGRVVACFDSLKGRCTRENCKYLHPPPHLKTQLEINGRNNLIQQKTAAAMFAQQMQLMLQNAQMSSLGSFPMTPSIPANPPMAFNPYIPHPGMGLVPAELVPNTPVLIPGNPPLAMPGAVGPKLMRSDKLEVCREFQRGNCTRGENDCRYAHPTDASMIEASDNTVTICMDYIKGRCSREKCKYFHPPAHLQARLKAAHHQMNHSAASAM

Data set [2] has as its target T2, MBNL1 (UniProt Q9NR56 1-260).
T2 sequence: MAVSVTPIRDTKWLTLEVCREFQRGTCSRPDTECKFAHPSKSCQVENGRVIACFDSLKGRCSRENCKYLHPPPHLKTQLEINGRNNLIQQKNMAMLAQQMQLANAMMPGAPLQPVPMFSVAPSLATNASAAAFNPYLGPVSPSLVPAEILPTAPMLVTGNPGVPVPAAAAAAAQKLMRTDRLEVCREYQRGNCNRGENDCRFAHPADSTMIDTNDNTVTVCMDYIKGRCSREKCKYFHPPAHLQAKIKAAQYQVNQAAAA

Data set [3] has as its target T3, MBNL2 (human, UniProt Q5VZF2 1-268).
T3 sequence: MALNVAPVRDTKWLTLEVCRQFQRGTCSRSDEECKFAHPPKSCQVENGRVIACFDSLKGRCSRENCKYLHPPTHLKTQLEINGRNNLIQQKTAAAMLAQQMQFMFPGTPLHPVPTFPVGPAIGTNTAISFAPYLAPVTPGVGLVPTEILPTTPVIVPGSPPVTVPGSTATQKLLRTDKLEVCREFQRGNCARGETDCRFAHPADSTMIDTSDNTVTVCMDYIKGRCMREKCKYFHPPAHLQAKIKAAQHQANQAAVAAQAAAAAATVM

Data set [4] has as its target T1, MBNL3. The source holds these as a separate data set.
Data set [5] has as its target T2, MBNL1. This is another data set of the same source.
Data set [6] addresses T3, MBNL2. The source holds these as a separate data set.

Usually Kd stands for the equilibrium constant for the complex coming apart.

B1: (CUG)20 (structured_RNA)
RNA: CUGCUGCUGCUGCUGCUGCUGCUGCUGCUGCUGCUGCUGCUGCUGCUGCUGCUGCUGCUG
For B1, the Kd with MBNL3 [1], with MBNL1 [2] and with MBNL2 [3] was ~7.75 nM throughout.

B2: Atp2a1 intron 22 RNA (145 nt) (structured_RNA)
RNA: GGGCACCCCUGCGGUCACUUGCGCGCGCUCGCAGCUCUCCCUGGAGCCACUGCUGCUGUUGCCACUGCCCGCUUCCACAUGAGGGCCAUGCCGUUACUGUGGGCACUGGCAGCUGUGAGGCUGUGUCCUGGCCGUCCAGUCUGCU
Take B2: the binding result with MBNL3 [4], in the data set with MBNL1 [5] and with MBNL2 [6] was “binds” throughout.
